Changes are numbered by the printed parent chain.
Experiments:
[1] = biological target: the molecule itself; assay: cross-linking
[2] = biological target: the molecule itself; assay: FRET or BRET

B1: WT rhTRIM5α CC-L2 peptide (residues 132-296) with an added C-terminal cysteine, fluorescently labelled (domain or fragment, rhesus macaque)
chain: LMEEVAQEYHVKLQTALEMLRQKQQEAEKLEADIREEKASWKIQIDYDKTNVSADFEQLREILDWEESNELQNLEKEEEDILKSLTKSETEMVQQTQYMRELISELEHRLQGSMMDLLQGVDGIIKRIENMTLKKPKTFHKNQRRVFRAPDLKGMLDMFRELTDAC
modifications: Alexa Fluor 488 C5-maleimide or Alexa Fluor 594 C5-maleimide on the added C-terminal cysteine
- stoichiometry N [1]: 2

B2: HKN271-273AAA rhTRIM5α CC-L2 peptide (residues 132-296) with an added C-terminal cysteine, fluorescently labelled (domain or fragment, rhesus macaque)
chain: B1 chain with H140A, K141A, N142A
modifications: Alexa Fluor 488 C5-maleimide or Alexa Fluor 594 C5-maleimide on the added C-terminal cysteine
- binding result [2]: binds

B3: RRV275-277AAA rhTRIM5α CC-L2 peptide (residues 132-296) with an added C-terminal cysteine, fluorescently labelled (domain or fragment, rhesus macaque)
chain: B1 chain with R144A, R145A, V146A
modifications: Alexa Fluor 488 C5-maleimide or Alexa Fluor 594 C5-maleimide on the added C-terminal cysteine
- binding result [2]: binds
